Laboratory results as given in patent US20220332824A1 (NANJING GENSCRIPT BIOTECH, published 2022).
Substitutions are numbered along the chain they refer to. Blank lines part the entries; values can stand above or below the binder they belong to.

Target: T1, human PD-1 (human, UniProt Q15116 25-288)
T1 construct: whole, on cells; also called PD-1 antigen
Test: flow cytometry on CHO-K1 cells expressing PD-1
Method: For the constructed series of bispecific antibodies, the affinity of these samples with antigens was measured by using a flow cytometer. […] Then, an antibody-antigen binding curve was generated based on the geometric mean, raw data of four parameters was plotted by using the […] Prism V6.02 software, and a best fitted value program was compiled to analyze EC₅₀.

T1 sequence (Q15116 25-288): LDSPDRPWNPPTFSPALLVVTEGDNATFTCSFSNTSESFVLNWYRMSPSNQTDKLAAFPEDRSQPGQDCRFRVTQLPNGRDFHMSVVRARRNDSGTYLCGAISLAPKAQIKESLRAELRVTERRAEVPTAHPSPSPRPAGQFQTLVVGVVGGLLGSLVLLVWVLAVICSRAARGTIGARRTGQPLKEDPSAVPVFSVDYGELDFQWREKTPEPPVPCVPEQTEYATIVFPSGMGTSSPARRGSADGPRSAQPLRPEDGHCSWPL

B1: bispecific antibody PD1a-E-LC (bispecific antibody, human IgG4 S228P, kappa)
heavy: not shown
light: EIVLTQSPATLSLSPGERATLSCRASENVGTYISWYQQKPGQAPRLLIYGASNRYTGIPARFSGSGSGTDFTLTISSLEPEDFAVYYCGESYGHLYTFGGGTKVEIKRTVAAPSVFIFPPSDEQLKSGTASVVCLLNNFYPREAKVQWKVDNALQSGNSQESVTEQDSKDSTYSLSSTLTLSKADYEKHKVYACEVTHQGLSSPVTKSFNRGECEPKSSDKTHTSPPSPEVQLVESGGGLVQPGGSLRLSCAVSGNIYNRNFMGWFRQAPGKGREGVSAIYTGTSRTYYADSVKGRFTISRDNAKNTVYLQMNSLRPEDTAVYYCAADLRDGFWDTGVWNTWGQGTLVTVSS
notes: PD1a sdAb fused by the E-linker to the C-terminus of light chain L0; also called L1 + H0
binding result: binds

B3: bispecific antibody PD1a-E-HN (bispecific antibody, human IgG4 S228P, kappa)
heavy: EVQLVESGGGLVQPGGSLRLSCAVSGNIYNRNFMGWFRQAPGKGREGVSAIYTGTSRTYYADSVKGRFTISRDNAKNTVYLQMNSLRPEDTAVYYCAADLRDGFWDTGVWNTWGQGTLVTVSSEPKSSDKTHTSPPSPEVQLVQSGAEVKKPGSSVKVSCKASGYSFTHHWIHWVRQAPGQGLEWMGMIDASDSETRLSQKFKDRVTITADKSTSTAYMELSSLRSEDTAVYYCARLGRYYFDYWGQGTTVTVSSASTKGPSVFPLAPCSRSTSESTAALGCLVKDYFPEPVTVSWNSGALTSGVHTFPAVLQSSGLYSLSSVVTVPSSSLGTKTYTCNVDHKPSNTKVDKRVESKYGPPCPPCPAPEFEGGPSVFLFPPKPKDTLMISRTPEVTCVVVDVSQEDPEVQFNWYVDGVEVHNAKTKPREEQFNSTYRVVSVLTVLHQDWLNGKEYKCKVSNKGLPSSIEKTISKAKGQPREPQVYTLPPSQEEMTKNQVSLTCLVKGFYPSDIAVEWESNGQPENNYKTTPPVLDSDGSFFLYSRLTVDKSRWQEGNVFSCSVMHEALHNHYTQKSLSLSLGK
light: EIVLTQSPATLSLSPGERATLSCRASENVGTYISWYQQKPGQAPRLLIYGASNRYTGIPARFSGSGSGTDFTLTISSLEPEDFAVYYCGESYGHLYTFGGGTKVEIKRTVAAPSVFIFPPSDEQLKSGTASVVCLLNNFYPREAKVQWKVDNALQSGNSQESVTEQDSKDSTYSLSSTLTLSKADYEKHKVYACEVTHQGLSSPVTKSFNRGEC
notes: PD1a sdAb fused by the E-linker to the N-terminus of heavy chain H0; also called H3 + L0
binding result: binds

B4: bispecific antibody PD1a-E-HC (bispecific antibody, human IgG4 S228P, kappa)
heavy: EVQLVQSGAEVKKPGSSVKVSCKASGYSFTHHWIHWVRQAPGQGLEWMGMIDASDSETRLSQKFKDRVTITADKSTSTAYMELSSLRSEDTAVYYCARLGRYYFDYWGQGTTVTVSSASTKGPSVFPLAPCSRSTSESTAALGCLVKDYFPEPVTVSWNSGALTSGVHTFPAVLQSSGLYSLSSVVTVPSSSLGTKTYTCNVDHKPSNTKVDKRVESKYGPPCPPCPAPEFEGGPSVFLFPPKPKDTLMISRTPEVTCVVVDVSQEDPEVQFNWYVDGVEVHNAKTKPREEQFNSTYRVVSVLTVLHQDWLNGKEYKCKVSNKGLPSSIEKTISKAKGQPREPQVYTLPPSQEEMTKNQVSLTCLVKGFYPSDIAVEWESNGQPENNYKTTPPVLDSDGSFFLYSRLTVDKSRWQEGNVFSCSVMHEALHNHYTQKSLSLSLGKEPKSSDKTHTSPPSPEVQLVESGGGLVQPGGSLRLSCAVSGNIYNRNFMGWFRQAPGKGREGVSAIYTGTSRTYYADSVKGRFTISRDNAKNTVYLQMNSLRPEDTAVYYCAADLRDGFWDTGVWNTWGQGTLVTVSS
light: B3 light
notes: PD1a sdAb fused by the E-linker to the C-terminus of heavy chain H0; also called H1 + L0
binding result: binds

B8: bispecific antibody PD1a-E-LN (bispecific antibody, human IgG4 S228P, kappa)
heavy: not shown
light: EVQLVESGGGLVQPGGSLRLSCAVSGNIYNRNFMGWFRQAPGKGREGVSAIYTGTSRTYYADSVKGRFTISRDNAKNTVYLQMNSLRPEDTAVYYCAADLRDGFWDTGVWNTWGQGTLVTVSSEPKSSDKTHTSPPSPEIVLTQSPATLSLSPGERATLSCRASENVGTYISWYQQKPGQAPRLLIYGASNRYTGIPARFSGSGSGTDFTLTISSLEPEDFAVYYCGESYGHLYTFGGGTKVEIKRTVAAPSVFIFPPSDEQLKSGTASVVCLLNNFYPREAKVQWKVDNALQSGNSQESVTEQDSKDSTYSLSSTLTLSKADYEKHKVYACEVTHQGLSSPVTKSFNRGEC
notes: PD1a sdAb fused by the E-linker to the N-terminus of light chain L0; also called L3 + H0
binding result: binds

Continued, values first:

binding result: binds
B2: bispecific antibody PD1b-E-LC (bispecific antibody, human IgG4 S228P, kappa)
heavy: not shown
light: B1 light with R274L, A304S, P317A, D331E
notes: PD1b sdAb fused by the E-linker to the C-terminus of light chain L0; also called L2 + H0

binding result: binds
B5: bispecific antibody PD1a-G15-HC (bispecific antibody, human IgG4 S228P, kappa)
heavy: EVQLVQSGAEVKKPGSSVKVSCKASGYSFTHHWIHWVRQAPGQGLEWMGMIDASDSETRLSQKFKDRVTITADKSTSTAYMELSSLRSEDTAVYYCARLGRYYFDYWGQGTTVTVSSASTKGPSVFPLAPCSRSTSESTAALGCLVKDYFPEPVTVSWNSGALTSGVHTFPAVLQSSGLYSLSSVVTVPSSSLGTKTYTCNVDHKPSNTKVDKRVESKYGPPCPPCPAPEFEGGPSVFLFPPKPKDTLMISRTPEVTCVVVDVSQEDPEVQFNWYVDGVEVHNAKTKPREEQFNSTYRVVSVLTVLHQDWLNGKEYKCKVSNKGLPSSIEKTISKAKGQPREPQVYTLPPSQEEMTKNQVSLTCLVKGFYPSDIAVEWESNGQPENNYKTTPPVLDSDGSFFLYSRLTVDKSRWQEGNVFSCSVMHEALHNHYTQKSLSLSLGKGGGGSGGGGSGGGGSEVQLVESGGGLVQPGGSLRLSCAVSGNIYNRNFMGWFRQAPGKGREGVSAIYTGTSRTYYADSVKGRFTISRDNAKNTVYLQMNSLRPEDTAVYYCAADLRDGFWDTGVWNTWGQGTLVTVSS
light: B3 light
notes: PD1a sdAb fused by the G15-linker to the C-terminus of heavy chain H0; also called H5 + L0

binding result: binds
B6: bispecific antibody PD1b-E-HN (bispecific antibody, human IgG4 S228P, kappa)
heavy: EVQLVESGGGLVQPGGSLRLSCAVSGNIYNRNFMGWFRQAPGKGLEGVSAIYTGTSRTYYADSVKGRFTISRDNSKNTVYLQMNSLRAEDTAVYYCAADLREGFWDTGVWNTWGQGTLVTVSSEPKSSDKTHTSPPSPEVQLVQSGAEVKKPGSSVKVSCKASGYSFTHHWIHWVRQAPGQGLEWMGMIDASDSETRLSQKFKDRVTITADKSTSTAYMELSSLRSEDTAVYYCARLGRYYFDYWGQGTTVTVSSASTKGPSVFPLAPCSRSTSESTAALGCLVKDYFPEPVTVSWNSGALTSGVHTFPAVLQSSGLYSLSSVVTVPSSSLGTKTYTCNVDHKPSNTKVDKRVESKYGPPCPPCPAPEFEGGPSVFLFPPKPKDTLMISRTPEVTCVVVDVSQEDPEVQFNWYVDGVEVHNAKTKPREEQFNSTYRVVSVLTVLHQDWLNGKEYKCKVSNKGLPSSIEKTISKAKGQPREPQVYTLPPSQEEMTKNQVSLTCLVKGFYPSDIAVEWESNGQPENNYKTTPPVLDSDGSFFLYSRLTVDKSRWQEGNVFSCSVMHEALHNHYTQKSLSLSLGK
light: B3 light
notes: PD1b sdAb fused by the E-linker to the N-terminus of heavy chain H0; also called H4 + L0

binding result: binds
B7: bispecific antibody PD1b-E-HC (bispecific antibody, human IgG4 S228P, kappa)
heavy: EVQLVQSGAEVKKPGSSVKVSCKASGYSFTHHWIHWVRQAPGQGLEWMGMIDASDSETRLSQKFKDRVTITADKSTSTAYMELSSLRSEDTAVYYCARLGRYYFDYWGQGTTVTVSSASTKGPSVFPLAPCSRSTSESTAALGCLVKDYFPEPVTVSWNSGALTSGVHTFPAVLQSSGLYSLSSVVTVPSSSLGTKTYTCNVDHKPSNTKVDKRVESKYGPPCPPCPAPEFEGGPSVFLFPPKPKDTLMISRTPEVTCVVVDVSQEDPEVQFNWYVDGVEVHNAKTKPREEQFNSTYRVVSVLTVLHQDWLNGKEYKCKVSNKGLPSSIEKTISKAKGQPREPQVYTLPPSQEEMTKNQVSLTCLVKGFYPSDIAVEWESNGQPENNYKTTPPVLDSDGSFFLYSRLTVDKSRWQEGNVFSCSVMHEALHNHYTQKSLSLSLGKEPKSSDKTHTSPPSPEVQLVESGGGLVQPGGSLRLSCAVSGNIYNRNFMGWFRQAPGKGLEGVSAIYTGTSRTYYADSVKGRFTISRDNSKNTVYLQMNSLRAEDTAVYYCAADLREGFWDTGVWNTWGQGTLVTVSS
light: B3 light
notes: PD1b sdAb fused by the E-linker to the C-terminus of heavy chain H0; also called H2 + L0

binding result: binds
B9: bispecific antibody PD1b-E-LN (bispecific antibody, human IgG4 S228P, kappa)
heavy: not shown
light: B8 light with R45L, A75S, P88A, D102E
notes: PD1b sdAb fused by the E-linker to the N-terminus of light chain L0; also called L4 + H0
